The target of experiment [1] is FGFR3 S249C stably expressed in BaF3 cells (human) (UniProt P22607). The experiment can be described thus: nonreducing SDS-PAGE with Western blot.
For experiment [2], the target named is FGFR3 S249C stably expressed in FaDu head and neck cancer cells (human) (UniProt P22607). The experiment can be described thus: nonreducing SDS-PAGE with Western blot.

For “FGFR3 S249C stably expressed in BaF3 cells (from UniProt P22607 23-806) (receptor)”, the percent of FGFR3 present as dimer in experiment [1] turned out to be 6%. In experiment [2], “FGFR3 S249C stably expressed in FaDu head and neck cancer cells (from UniProt P22607 23-806) (receptor)” yielded a percent of FGFR3 present as dimer of 70%.

The values above are taken from publication PMC11217727.
